Data on 94 variants can be found in the supplement of paper PMC10567573.

B1: PI4K2A (parent)
chain: FVKDPQGRIIAVFKPKNEEPYGHL
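Also: lentivirally expressed fusions sorted by FACS into six bins by GFP to DsRed ratio, PSI derived from sequencing read proportions per bin multiplied by bin number.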

Variants of B1 are the subject of this data set. The data set is described as follows: protein stability index of a GFP-peptide fusion (GPS, HEK-293T) (PSI 1-6); higher = more stable. As to conditions: c terminus: a fixed tail appended.
For FVKDPQGRIIAVFTPKNEEPYGHL [K14T], the protein stability index worked out at 2.17.
Regarding FVKDPQGRIIAVFYPKNEEPYGHL [K14Y], the protein stability index is 2.23.
For FVKDPQGRIIAVFDPKNEEPYGHL [K14D] the value was 2.49; for FVKDPQGRIIAVFLPKNEEPYGHL [K14L], 2.08; for FVKDPQGRIIAVFVPKNEEPYGHL [K14V], 1.47.
Turning to FVKDPQGRIIAVFGPKNEEPYGHL [K14G], the protein stability index came out at 2.46.
FVKDPQGRIIAVFPPKNEEPYGHL [K14P]: the protein stability index was 2.07.
Regarding FVKDPQGRIIAVFAPKNEEPYGHL [K14A], the protein stability index stood at 2.09.
For FVKDPQGRIAAVFKPKNEEPYGHL [I10A] the value was 2.15; for FVKDPQGRIDAVFKPKNEEPYGHL [I10D], 1.97.
For FVKDPQGRIVAVFKPKNEEPYGHL [I10V] the value was 1.88; for FVKDPQGRIHAVFKPKNEEPYGHL [I10H], 2.33.
As for FVKDPQGRIYAVFKPKNEEPYGHL [I10Y], the figure is 2.28; as for FVKDPQGRIPAVFKPKNEEPYGHL [I10P], 2.56.
With FVKDPQGRICAVFKPKNEEPYGHL [I10C], the protein stability index amounted to 2.23.
For FVKDPQGRITAVFKPKNEEPYGHL [I10T] the value was 2.09.
As for FVKDPQGRIWAVFKPKNEEPYGHL [I10W], the figure is 2.88.
As for FVKDPQGRIRAVFKPKNEEPYGHL [I10R], the figure is 2.85; as for FVKDPQGRINAVFKPKNEEPYGHL [I10N], 2.35.
FVKDPQGRIMAVFKPKNEEPYGHL [I10M]: the protein stability index came to 2.51.
For FVKDPQGRISAVFKPKNEEPYGHL [I10S] the value was 1.97; for FVKDPQGRILAVFKPKNEEPYGHL [I10L], 2.99.
For the variant FVKDPQGRIQAVFKPKNEEPYGHL [I10Q], the protein stability index turned out to be 1.74.
As for FVKDPQGRIGAVFKPKNEEPYGHL [I10G], the figure is 2.09.
For FVKDPQGRIFAVFKPKNEEPYGHL [I10F] the value was 2.79; for FVKDPQGRIIAGFKPKNEEPYGHL [V12G], 2.44; for FVKDPQGRIIAMFKPKNEEPYGHL [V12M], 2.
For the variant FVKDPQGRIIAFFKPKNEEPYGHL [V12F], the protein stability index came out at 2.84.
For FVKDPQGRIIAIFKPKNEEPYGHL [V12I] the value was 1.85; for FVKDPQGRIIAYFKPKNEEPYGHL [V12Y], 1.93; for FVKDPQGRIIASFKPKNEEPYGHL [V12S], 2.72.
In the case of FVKDPQGRIIAPFKPKNEEPYGHL [V12P], the protein stability index worked out at 2.46.
For FVKDPQGRIIAQFKPKNEEPYGHL [V12Q] the value was 2.5; for FVKDPQGRIIALFKPKNEEPYGHL [V12L], 2.07.
In the case of FVKDPQGRIIADFKPKNEEPYGHL [V12D], the protein stability index was found to be 1.56.
As for FVKDPQGRIIACFKPKNEEPYGHL [V12C], the figure is 2.04.
For FVKDPQGRIIATFKPKNEEPYGHL [V12T] the value was 2.54.
For FVKDPQGRIIAKFKPKNEEPYGHL [V12K] the value was 1.38; for FVKDPQGRIIAAFKPKNEEPYGHL [V12A], 3.17; for FVKDPQGRIIAHFKPKNEEPYGHL [V12H], 2.9.
For FVKDPQGRIIAWFKPKNEEPYGHL [V12W], the protein stability index is 1.45.
For FVKDPQGRIIAEFKPKNEEPYGHL [V12E] the value was 1.74; for FVKDPQGRIIARFKPKNEEPYGHL [V12R], 1.96.
As for FVKDPGGRIIAVFKPKNEEPYGHL [Q6G], the figure is 1.92; as for FVKDPHGRIIAVFKPKNEEPYGHL [Q6H], 1.1.
For FVKDPAGRIIAVFKPKNEEPYGHL [Q6A] the value was 1.71; for FVKDPWGRIIAVFKPKNEEPYGHL [Q6W], 1.7; for FVKDPCGRIIAVFKPKNEEPYGHL [Q6C], 1.54.
Consider FVKDPSGRIIAVFKPKNEEPYGHL [Q6S], for which the protein stability index turned out to be 1.6.
For FVKDPLGRIIAVFKPKNEEPYGHL [Q6L] the value was 2.22; for FVKDPTGRIIAVFKPKNEEPYGHL [Q6T], 2.32.
As for FVKDPVGRIIAVFKPKNEEPYGHL [Q6V], the figure is 2.53; as for FVKDPMGRIIAVFKPKNEEPYGHL [Q6M], 1.57.
For FVKDPNGRIIAVFKPKNEEPYGHL [Q6N] the value was 1.84; for FVKDPDGRIIAVFKPKNEEPYGHL [Q6D], 2.4.
As to FVKDPEGRIIAVFKPKNEEPYGHL [Q6E], the protein stability index was 1.63.
As for FVKDPPGRIIAVFKPKNEEPYGHL [Q6P], the figure is 2.21; as for FVKDPRGRIIAVFKPKNEEPYGHL [Q6R], 1.49.
As for FVKDPFGRIIAVFKPKNEEPYGHL [Q6F], the figure is 1.62; as for FVKDPKGRIIAVFKPKNEEPYGHL [Q6K], 1.64; as for FVKDPIGRIIAVFKPKNEEPYGHL [Q6I], 1.45.
With FVKDPYGRIIAVFKPKNEEPYGHL [Q6Y], the protein stability index was 1.6.
Regarding FVKDPQGRIIAVFKAKNEEPYGHL [P15A], the protein stability index amounted to 2.18.
For FVKDPQGRIIAVFKCKNEEPYGHL [P15C] the value was 1.66; for FVKDPQGRIIAVFKSKNEEPYGHL [P15S], 1.96; for FVKDPQGRIIAVFKWKNEEPYGHL [P15W], 1.08.
As for FVKDPQGRIIAVFKVKNEEPYGHL [P15V], the figure is 1.92; as for FVKDPQGRIIAVFKNKNEEPYGHL [P15N], 2.26.
For FVKDPQGRIIAVFKFKNEEPYGHL [P15F] the value was 1.77; for FVKDPQGRIIAVFKDKNEEPYGHL [P15D], 1.9.
On to FVKDPQGRIIAVFKTKNEEPYGHL [P15T], for which the protein stability index is 1.27.
As for FVKDPQGRIIAVFKRKNEEPYGHL [P15R], the figure is 2.84.
For FVKDPQGRIIAVFKYKNEEPYGHL [P15Y] the value was 2.4; for FVKDPQGRIIAVFKQKNEEPYGHL [P15Q], 2.07.
As for FVKDPQGRIIAVFKHKNEEPYGHL [P15H], the figure is 1.58; as for FVKDPQGRIIAVFKMKNEEPYGHL [P15M], 2.1.
In the case of FVKDPQGRIIAVFKIKNEEPYGHL [P15I], the protein stability index was 2.13.
As for FVKDPQGRIIAVFKEKNEEPYGHL [P15E], the figure is 2.37; as for FVKDPQGRIIAVFKKKNEEPYGHL [P15K], 2.45; as for FVKDPQGRIIAVFKLKNEEPYGHL [P15L], 2.26.
For FVKDPQGRIIAVFKGKNEEPYGHL [P15G] the value was 2.5; for FVKDPQGRIIAVFKPGNEEPYGHL [K16G], 1.46.
As for FVKDPQGRIIAVFKPFNEEPYGHL [K16F], the figure is 2.44.
Turning to FVKDPQGRIIAVFKPENEEPYGHL [K16E], the protein stability index is 2.3.
With FVKDPQGRIIAVFKPDNEEPYGHL [K16D], the protein stability index turned out to be 2.22.
Regarding FVKDPQGRIIAVFKPINEEPYGHL [K16I], the protein stability index turned out to be 2.31.
For FVKDPQGRIIAVFKPPNEEPYGHL [K16P] the value was 1.7; for FVKDPQGRIIAVFKPNNEEPYGHL [K16N], 1.68; for FVKDPQGRIIAVFKPCNEEPYGHL [K16C], 1.63.
Consider FVKDPQGRIIAVFKPHNEEPYGHL [K16H], for which the protein stability index stood at 1.97.
As for FVKDPQGRIIAVFKPLNEEPYGHL [K16L], the figure is 1.66.
As for FVKDPQGRIIAVFKPMNEEPYGHL [K16M], the figure is 1.98; as for FVKDPQGRIIAVFKPANEEPYGHL [K16A], 1.91.
For FVKDPQGRIIAVFKPQNEEPYGHL [K16Q] the value was 2.23.
